Patent US9555076B2, “Neuregulin based methods and compositions for treating cardiovascular diseases” (Zensun (Shanghai) Science & Technology, Co., Ltd., priority 2002, dated 2017)

Experiments:
[1] = system: toxic myocarditis caused by Adriamycin in rat; test: Heart size (heart weight/body weight, wall thickness), Adriamycin rat model; assay type: in vivo, SD rat; conditions: Adriamycin model
Description: Heart was extirpated after thoracotomy (auricle should be reserved), the heart weight was measured after dried with absorbent paper, ratio of heart weight/body weight calculated; outer diameter of the heart was measured at ½ site of the vertically standing heart; medium part of the left ventricle was crosswise cut open, maximal thickness of free wall of the left ventricle measured; the heart was fixed with 10% formaldehyde, paraffin embedded and HE stained, observation of the myocardial structure carried out under optic microscope, give out pathologic score.

[2] = system: acute myocardial injury caused by viral (Coxsackie B3) infection in mice; test: Myocardial pathologic score, mice infected with Coxsackie B3 virus; assay type: in vivo, BALB/C mice; design: key: 0-4 score: 0 = 0%, 1 = 25%, 2 = 50%, 3 = 75%, 4 = 100% lesion area
Description: The survived mice were killed through dislocating the cervical spine, aseptic thoracotomy was performed and the heart extirpated, heart weight measured and put the myocardium into formaldehyde for fixation, embedded in paraffin, consecutive section made and pathologic examination performed, observed inflammatory cells infiltration of the myocardium, degeneration and necrosis. Based on the Principle of New Drug Evaluation Guideline, pathologic scoring criteria was defined as follow: • Score 0: lesion area accounting for 0%; • Score 1: lesion area accounting for 25%; • Score 2: lesion area accounting for 50%; • Score 3: lesion area accounting for 75%; • Score 4: lesion area accounting for 100%; • Scoring could be performed between score 1 and score 2 or between score 2 and score 3, e.g. when lesion area was 80% was scored as score 3.2, 7.3.3.4 Observation On Survival Of Mice

[3] = system: Rhesus; test: Serum antibody detection (ELISA) in long-term toxicity study; assay type: in vivo; conditions: 7.5, 15, 75 μg/kg/d iv, 1, 2, 3-week and end of convalescent period
Description: Sealing: Wash the plate 5 times, prepare 5% evaporated skimmed milk with cleaning solution.
Dilute the scheduled for testing serum; dilute the sample with sample dilution solution, dilute gradient is 1:100.
Add sample: Wash the sealed enzyme labeled plate for 3 times, add scheduled for testing serum, 100 μl/hole, 37° C. for 1 hour.
Add enzyme labeled antibody: Wash the plate 5 times, add 1:1000 diluted HRP labeled rat anti-monkey immunoglobulin, […], 37° C. for 1 hour.
Substrate: Wash the plate 5 times, add newly prepared substrate operating fluid, 100 μl/hole, 37° C. for 10 minutes.
Ending: add 2N H2SO4, 50 μl/hole to end the reaction.
Odd value detection: Positive result was defined as OD value of testing sample was 2.1 time greater than that of the negative control (serum was 1:100 diluted).

[4] = system: Rhesus; test: Rhesus long-term toxicity study, 3 weeks iv plus 3 weeks convalescence; conditions: 7.5, 15, 75 μg/kg/d iv 3 weeks

B1: rhNRG-1 β: Recombinant human neuregulin fragment of 61 amino acid (SEQ ID NO:4), 3 disulfide bonds, expressed in E. coli (protein, listed as Homo sapiens)
chain: SHLVKCAEKEKTFCVNGGECFMVKDLSNPSRYLCKCPNEFTGDRCQNYVMASFYKAEELYQ
modifications: disulfide (positions not given here)
[1]; 10 μg/kg iv qd × 10 d, (I)
  Heart weight/body weight: 0.00301 ± 0.0002
  Left ventricle wall thickness: 1.773 ± 0.115 mm
[1]; 10 μg/kg iv qd × 10 d, (II)
  Heart weight/body weight: 0.00307 ± 0.000
  Left ventricular wall thickness: 2.18 ± 0.21 mm
[1]; 20 μg/kg iv qd × 10 d, (I)
  Heart weight/body weight: 0.0032 ± 0.0001
  Left ventricle wall thickness: 1.789 ± 0.133 mm
[1]; 20 μg/kg iv qd × 10 d, (II)
  Heart weight/body weight: 0.00303 ± 0.000
  Left ventricular wall thickness: 2.15 ± 0.24 mm
[1]; 40 μg/kg iv qd × 10, (II)
  Heart weight/body weight: 0.00297 ± 0.000
  Left ventricular wall thickness: 2.06 ± 0.2 mm
[1]; 40 μg/kg iv qd × 10 d, (I)
  Heart weight/body weight: 0.0031 ± 0.0002
  Left ventricle wall thickness: 1.813 ± 0.12 mm
[2]; 7.5 μg/kg iv qd × 5, (I)
  Pathologic score Mean ± SD: 1.52 ± 0.74
[2]; 7.5 μg/kg iv qd × 5, (II)
  Pathologic score Mean ± SD: 1.34 ± 1.16
[2]; 15 μg/kg iv qd × 5, (I)
  Pathologic score Mean ± SD: 0.73±0.58
[2]; 15 μg/kg iv qd × 5, (I), listed as rhNRG-1β
  Pathologic score Mean ± SD: 0.73 ± 0.58
[2]; 15 μg/kg iv qd × 5, (II)
  Pathologic score Mean ± SD: 0.57 ± 0.58
[2]; 30 μg/kg iv qd × 3, (I)
  Pathologic score Mean ± SD: 0.33±0.155
[2]; 30 μg/kg iv qd × 3, (I), listed as rhNRG-1β
  Pathologic score Mean ± SD: 0.33 ± 0.155
[2]; 30 μg/kg iv qd × 3, (II)
  Pathologic score Mean ± SD: 0.55 ± 0.476
[2]; 30 μg/kg iv qd × 5, (I)
  Pathologic score Mean ± SD: 0.56±0.47
[2]; 30 μg/kg iv qd × 5, (I), listed as rhNRG-1β
  Pathologic score Mean ± SD: 0.56 ± 0.47
[2]; 30 μg/kg iv qd × 5, (II)
  Pathologic score Mean ± SD: 0.23 ± 0.26
[2]; 30 μg/kg iv qd × 5, Example 5 (I)
  Pathologic score Mean ± SD: 0.11±0.14
[2]; 30 μg/kg iv qd × 5, Example 5 (I), listed as rhNRG-1β
  Pathologic score Mean ± SD: 0.11 ± 0.140
[2]; 30 μg/kg iv qd × 5, Example 5 (II)
  Pathologic score Mean ± SD: 0.17 ± 0.157
[2]; 30 μg/kg iv qd × 7, (I)
  Pathologic score Mean ± SD: 0.13±0.13
[2]; 30 μg/kg iv qd × 7, (I), listed as rhNRG-1β
  Pathologic score Mean ± SD: 0.13 ± 0.132
[2]; 30 μg/kg iv qd × 7, (II)
  Pathologic score Mean ± SD: 0.19 ± 0.168
[3]
  antibody testing: negative results
[4]
  animal death: No animal death associated with the testing drug
